Experimental data from patent US10064926B2, “Peptides and combination of peptides for use in immunotherapy against hepatocellular carcinoma (HCC) and other cancers” (Immatics biotechnologies GmbH, priority 2014, dated 2018).

biological target: HLA-A*02 (Homo sapiens, UniProt P04439, D140Y/D185E/D98H/E176V/E277Q/G131W/G231S/I119V/I121R/I166T/I218V/N151K/N90K/P208A/P217A/Q86G/Q94H/R138H/R169H); experiment: UV-ligand exchange / peptide binding to MHC class I (beta2m ELISA); settings: Table 10B; peptide exchange yield; HLA-A*02 peptides
Source text: Candidate peptides for T cell based therapies according to the present invention were further tested for their MHC binding capacity (affinity). The individual peptide-MHC complexes were produced by UV-ligand exchange, where a UV-sensitive peptide is cleaved upon UV-irradiation, and exchanged with the peptide of interest as analyzed. Only peptide candidates that can effectively bind and stabilize the peptide-receptive MHC molecules prevent dissociation of the MHC complexes. To determine the yield of the exchange reaction, an ELISA was performed based on the detection of the light chain (β2m) of stabilized MHC complexes. The assay was performed as generally described in Rodenko et al. (Rodenko B, Toebes M, Hadrup S R, van Esch W J, Molenaar A M, Schumacher T N, Ovaa H. Generation of peptide-MHC class I complexes through UV-mediated ligand exchange. Nat Protoc. 2006; 1(3):1120-32).
96 well MAXISorp plates (NUNC) were coated over night with 2 ug/ml streptavidin in PBS at room temperature, washed 4× and blocked for 1 h at 37° C. in 2% BSA containing blocking buffer. Refolded HLA-A*0201/MLA-001 monomers served as standards, covering the range of 15-500 ng/ml. Peptide-MHC monomers of the UV-exchange reaction were diluted 100 fold in blocking buffer. Samples were incubated for 1 h at 37° C., washed four times, incubated with 2 ug/ml HRP conjugated anti-β2m for 1 h at 37° C., washed again and detected with TMB solution that is stopped with […]. Absorption was measured at 450 nm. Candidate peptides that show a high exchange yield (preferably higher than 50%, most preferred higher than 75%) are generally preferred for a generation and production of antibodies or fragments thereof, and/or T cell receptors or fragments thereof, as they show sufficient avidity to the MHC molecules and prevent dissociation of the MHC complexes.

Q: With “78 (LLIDDEYKV; listed as Homo sapiens) [compound 78]” as the substance, how does the “Peptide exchange (MHC class I binding score)” value (“Peptide exchange” below) read?
A: Its value is ““+++” (≥50 = +++)”.

Q: For “80 (LLYEGKLTL; listed as Homo sapiens) [compound 80]”, which “Peptide exchange” value is on record?
A: Its value is ““++++” (≥75% = ++++)”.

Q: Which “Peptide exchange” value does the source give for “81 (NLASFIEQVAV; listed as Homo sapiens) [compound 81]” here?
A: The value was ““+++” (≥50 = +++)”.

Q: With “82 (NVFDGLVRV; listed as Homo sapiens) [compound 82]” as the substance, how does the “Peptide exchange” value read?
A: The value was ““+++” (≥50 = +++)”.

Q: With “83 (QLHDFVMSL; listed as Homo sapiens) [compound 83]” as the substance, how does the “Peptide exchange” value read?
A: Its value is ““++++” (≥75% = ++++)”.

Q: With “84 (QLTPVLVSV; listed as Homo sapiens) [compound 84]” as the substance, how does the “Peptide exchange” value read?
A: Its value is ““+++” (≥50 = +++)”.

Q: How did the “Peptide exchange” value turn out when “85 (RILPKVLEV; listed as Homo sapiens) [compound 85]” was run?
A: Its value is ““+++” (≥50 = +++)”.

Q: “86 (RLAAFYSQV; listed as Homo sapiens) [compound 86]” was tested. Which “Peptide exchange” value did it give?
A: Its value is ““+++” (≥50 = +++)”.

Q: With “87 (RLFEENDVNL; listed as Homo sapiens) [compound 87]” as the substance, how does the “Peptide exchange” value read?
A: The value was ““+++” (≥50 = +++)”.

Q: With “88 (RLIDRIKTV; listed as Homo sapiens) [compound 88]” as the substance, how does the “Peptide exchange” value read?
A: The value was ““++” (≥20% = ++)”.

Q: “89 (RLIEEIKNV; listed as Homo sapiens) [compound 89]” was tested. Which “Peptide exchange” value did it give?
A: The value was ““++” (≥20% = ++)”.

Q: For “90 (RLLDVLAPLV; listed as Homo sapiens) [compound 90]”, which “Peptide exchange” value is on record?
A: The value was ““+++” (≥50 = +++)”.

Q: With “91 (RLPDIPLRQV; listed as Homo sapiens) [compound 91]” as the substance, how does the “Peptide exchange” value read?
A: Its value is ““+++” (≥50 = +++)”.

Q: “92 (RLPPDTLLQQV; listed as Homo sapiens) [compound 92]” was tested. Which “Peptide exchange” value did it give?
A: Its value is ““+++” (≥50 = +++)”.

Q: For “93 (RLYTMDGITV; listed as Homo sapiens) [compound 93]”, which “Peptide exchange” value is on record?
A: The value was ““++” (≥20% = ++)”.

Q: With “94 (RMSDVVKGV; listed as Homo sapiens) [compound 94]” as the substance, how does the “Peptide exchange” value read?
A: Its value is ““+++” (≥50 = +++)”.

Q: How did the “Peptide exchange” value turn out when “95 (SICNGVPMV; listed as Homo sapiens) [compound 95]” was run?
A: Its value is ““+++” (≥50 = +++)”.

Q: “96 (SLLEEPNVIRV; listed as Homo sapiens) [compound 96]” was tested. Which “Peptide exchange” value did it give?
A: Its value is ““++++” (≥75% = ++++)”.

Q: For “97 (SLLPQLIEV; listed as Homo sapiens) [compound 97]”, which “Peptide exchange” value is on record?
A: The value was ““++++” (≥75% = ++++)”.

Q: For “98 (SLLSPEHLQYL; listed as Homo sapiens) [compound 98]”, which “Peptide exchange” value is on record?
A: Its value is ““+++” (≥50 = +++)”.

Q: Which “Peptide exchange” value does the source give for “99 (SLSAFLPSL; listed as Homo sapiens) [compound 99]” here?
A: Its value is ““++++” (≥75% = ++++)”.

Q: How did the “Peptide exchange” value turn out when “100 (SLVGDIGNVNM; listed as Homo sapiens) [compound 100]” was run?
A: The value was ““++” (≥20% = ++)”.

Q: Which “Peptide exchange” value does the source give for “101 (SLWEGGVRGV; listed as Homo sapiens) [compound 101]” here?
A: The value was ““+++” (≥50 = +++)”.

Q: Which “Peptide exchange” value does the source give for “102 (SLWSVARGV; listed as Homo sapiens) [compound 102]” here?
A: The value was ““+++” (≥50 = +++)”.

Q: Which “Peptide exchange” value does the source give for “103 (SMGDHLWVA; listed as Homo sapiens) [compound 103]” here?
A: Its value is ““+++” (≥50 = +++)”.

Q: With “104 (SVWFGPKEV; listed as Homo sapiens) [compound 104]” as the substance, how does the “Peptide exchange” value read?
A: The value was ““+++” (≥50 = +++)”.

Q: “105 (SVYDGKLLI; listed as Homo sapiens) [compound 105]” was tested. Which “Peptide exchange” value did it give?
A: The value was ““++++” (≥75% = ++++)”.

Q: How did the “Peptide exchange” value turn out when “106 (TLAAIIHGA; listed as Homo sapiens) [compound 106]” was run?
A: Its value is ““+++” (≥50 = +++)”.

Q: How did the “Peptide exchange” value turn out when “107 (TLGQFYQEV; listed as Homo sapiens) [compound 107]” was run?
A: Its value is ““++++” (≥75% = ++++)”.

Q: How did the “Peptide exchange” value turn out when “108 (TLLKKISEA; listed as Homo sapiens) [compound 108]” was run?
A: The value was ““+++” (≥50 = +++)”.

Q: How did the “Peptide exchange” value turn out when “109 (TLYALSHAV; listed as Homo sapiens) [compound 109]” was run?
A: The value was ““+++” (≥50 = +++)”.

Q: With “110 (TVGGSEILFEV; listed as Homo sapiens) [compound 110]” as the substance, how does the “Peptide exchange” value read?
A: The value was ““++++” (≥75% = ++++)”.

Q: Which “Peptide exchange” value does the source give for “111 (TVMDIDTSGTFNV; listed as Homo sapiens) [compound 111]” here?
A: The value was ““+++” (≥50 = +++)”.

Q: “112 (VLGEVKVGV; listed as Homo sapiens) [compound 112]” was tested. Which “Peptide exchange” value did it give?
A: Its value is ““++++” (≥75% = ++++)”.

Q: How did the “Peptide exchange” value turn out when “113 (VLMDKLVEL; listed as Homo sapiens) [compound 113]” was run?
A: The value was ““++++” (≥75% = ++++)”.

Q: With “114 (VLSQVYSKV; listed as Homo sapiens) [compound 114]” as the substance, how does the “Peptide exchange” value read?
A: Its value is ““+++” (≥50 = +++)”.

Q: Which “Peptide exchange” value does the source give for “115 (VVLDDKDYFL; listed as Homo sapiens) [compound 115]” here?
A: Its value is ““+++” (≥50 = +++)”.

Q: Which “Peptide exchange” value does the source give for “117 (YAFPKSITV; listed as Homo sapiens) [compound 117]” here?
A: Its value is ““+++” (≥50 = +++)”.

Q: With “118 (YLDDEKNWGL; listed as Homo sapiens) [compound 118]” as the substance, how does the “Peptide exchange” value read?
A: Its value is ““+++” (≥50 = +++)”.

Q: For “119 (YLDKNLTVSV; listed as Homo sapiens) [compound 119]”, which “Peptide exchange” value is on record?
A: The value was ““+++” (≥50 = +++)”.

Q: How did the “Peptide exchange” value turn out when “120 (YLGEEYVKA; listed as Homo sapiens) [compound 120]” was run?
A: Its value is ““++” (≥20% = ++)”.

Q: “121 (YLITGNLEKL; listed as Homo sapiens) [compound 121]” was tested. Which “Peptide exchange” value did it give?
A: Its value is ““+++” (≥50 = +++)”.

Q: Which “Peptide exchange” value does the source give for “122 (YLSQAADGAKVL; listed as Homo sapiens) [compound 122]” here?
A: The value was ““++” (≥20% = ++)”.

Q: Which “Peptide exchange” value does the source give for “123 (YLWDLDHGFAGV; listed as Homo sapiens) [compound 123]” here?
A: The value was ““+++” (≥50 = +++)”.

Q: How did the “Peptide exchange” value turn out when “124 (LLIDVVTYL; listed as Homo sapiens) [compound 124]” was run?
A: Its value is ““++++” (≥75% = ++++)”.

Q: Which “Peptide exchange” value does the source give for “125 (ALYGRLEVV; listed as Homo sapiens) [compound 125]” here?
A: Its value is ““++++” (≥75% = ++++)”.

Q: How did the “Peptide exchange” value turn out when “126 (TLLDSPIKV; listed as Homo sapiens) [compound 126]” was run?
A: The value was ““+++” (≥50 = +++)”.

Q: “127 (VLIGSNHSL; listed as Homo sapiens) [compound 127]” was tested. Which “Peptide exchange” value did it give?
A: The value was ““++++” (≥75% = ++++)”.

Q: How did the “Peptide exchange” value turn out when “128 (GLAFSLNGV; listed as Homo sapiens) [compound 128]” was run?
A: The value was ““++++” (≥75% = ++++)”.

Q: For “129 (SQADVIPAV; listed as Homo sapiens) [compound 129]”, which “Peptide exchange” value is on record?
A: The value was ““+++” (≥50 = +++)”.

Q: “130 (ALDAGAVYTL; listed as Homo sapiens) [compound 130]” was tested. Which “Peptide exchange” value did it give?
A: The value was ““++++” (≥75% = ++++)”.

Q: How did the “Peptide exchange” value turn out when “131 (ALDSGAFQSV; listed as Homo sapiens) [compound 131]” was run?
A: The value was ““+++” (≥50 = +++)”.

Q: How did the “Peptide exchange” value turn out when “132 (ALHEEVVGV; listed as Homo sapiens) [compound 132]” was run?
A: The value was ““+++” (≥50 = +++)”.

Q: Which “Peptide exchange” value does the source give for “133 (ALLEMDARL; listed as Homo sapiens) [compound 133]” here?
A: The value was ““+++” (≥50 = +++)”.

Q: Which “Peptide exchange” value does the source give for “134 (ALLETNPYLL; listed as Homo sapiens) [compound 134]” here?
A: Its value is ““++++” (≥75% = ++++)”.

Q: “135 (ALLGKIEKV; listed as Homo sapiens) [compound 135]” was tested. Which “Peptide exchange” value did it give?
A: Its value is ““+++” (≥50 = +++)”.

Q: How did the “Peptide exchange” value turn out when “136 (ALLNQHYQV; listed as Homo sapiens) [compound 136]” was run?
A: The value was ““+++” (≥50 = +++)”.

Q: Which “Peptide exchange” value does the source give for “137 (ALPTVLVGV; listed as Homo sapiens) [compound 137]” here?
A: Its value is ““++++” (≥75% = ++++)”.

Q: For “138 (ALSQVTLLL; listed as Homo sapiens) [compound 138]”, which “Peptide exchange” value is on record?
A: The value was ““++++” (≥75% = ++++)”.

Q: For “139 (ALSSKPAEV; listed as Homo sapiens) [compound 139]”, which “Peptide exchange” value is on record?
A: Its value is ““+++” (≥50 = +++)”.

Q: With “140 (ALTSISAGV; listed as Homo sapiens) [compound 140]” as the substance, how does the “Peptide exchange” value read?
A: Its value is ““++++” (≥75% = ++++)”.

Q: Which “Peptide exchange” value does the source give for “141 (AMGEKSFSV; listed as Homo sapiens) [compound 141]” here?
A: Its value is ““++++” (≥75% = ++++)”.

Q: Which “Peptide exchange” value does the source give for “142 (AVIGGLIYV; listed as Homo sapiens) [compound 142]” here?
A: Its value is ““++++” (≥75% = ++++)”.

Q: For “145 (FLIAEYFEHV; listed as Homo sapiens) [compound 145]”, which “Peptide exchange” value is on record?
A: Its value is ““++” (≥20% = ++)”.

Q: How did the “Peptide exchange” value turn out when “146 (FLWTEQAHTV; listed as Homo sapiens) [compound 146]” was run?
A: The value was ““++” (≥20% = ++)”.
